Experimental data reported in the nanobody polyreactivity screen of Harvey et al. (2022).

Assay: yeast display, Sf9 membrane polyspecificity reagent, FACS + sequencing; frameworks hold sequencing errors
Method in brief: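 Sorting gates, low and high (top ~1%), were placed on anti-HA fluorescence to track expression and on streptavidin fluorescence to track reagent binding. A clone's polyreactivity label is taken from the gate it came out of. The reagent was 10% biotinylated, detergent-solubilized Sf9 membrane, applied for 1 hour at 4 °C to galactose-induced yeast display cells.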

Sequence	polyreactivity (PSR sort gate)
QVQLVESGGGLVQAGGSLRLSCAASGSISYSNAMGWYRQAPGKERELVAAISWSTGRTYYADSVKGRFTISRDNAKNTVYLQMNSLKPEDTAVYYCATRLYPGGPYDYWGQGTQVTVSS	high polyreactivity
QVQLVESGGGLVQAGGSLRLSCAASGRTFRLNAMGWYRQAPGKERELVAAITSSGGSTYYADSVKGRFTISRDNAKNTVYLQLNSLKPEDTAVYYCARRQGYGVRSIRWGDYWGQGTQVTVSS	high polyreactivity
QVQLVESGGGLVQAGGSLRLSCAASGRTLRYNTMGWYRQAPGKERELVAAITRSGTGTNYADSVKGRFTISRDNAKNTVYLQMNSLKPEDTAVYYCAAAPFPRRRYDYWGQGTQVTVSS	high polyreactivity
QVQLVESGGGLVQAGGSLRLSCAASGRTFQYNVMGWYRQAPGKEREFVAAITWNGGSTYYADSVKGRFTISRDNAKNTVYLQMNSLKPEDPAVYYCAARWTKKQEYGYWGQGTQVTVSS	low polyreactivity
QVQLVESGAGLVQAGGSLRISCAASGFTFAYYAMGWYRQAPGKEREFVAAITKGGGSTNYADSVKGRFTISRYNAKNTVYLQMNSLNPEDTAVYYCNADYFVWYIGRVFSRYGYWGQGTQVTVSS	low polyreactivity
QVQLVESGGGLVQAGGSLRLSCAASGSIFAENAMGCYRQAPGKERELVAAITRSGGSTYYADSVKGRFTISRDNAKNTVYLQMNSLKPEDTAVYYCAAREIASDDWGPDDYWGQGTQVTVSS	low polyreactivity
QVQLVESGGGLVQAGGSLRLSCAASGSIFKKYAMGWYRQAPGKERELVAAISSGGGSTYYADSVKGRFTISRDNAKNTVYLQMNSLKPEDTAVYYCNARIQYFKYRGYEYWGQGTQVTVSS	high polyreactivity
QVQLVESGGGLVQAGGSLRLSCAASGSTIFFNAMGWYRQAPGKERELVAGISSSGGSTHYADSVKGRFTISRDNAKNTVYLQMNSLKPEDTAVYYCNAQQYLPSEGDYWGQGTQVTVSS	low polyreactivity
QVQLVESGGGLVQAGGSLRLTCAASGSTFPYNAMGWYRPATGKERELVASITGGRKKYADSVKGRFTISRDNEKNTVYLQMNRLKREDTAVYYCAADYYSLWIRRDSNYWGQGTQVTVSS	low polyreactivity
QVQLVESGGGLVQAGGSLRLSCAASGFIFQRYAMGWYRQAPGKERELVAAISWSGGITYYADSVKGRFTISRDNAKNTVYLQMHSLKPEDTAVYYCAAGLAVGDYYWGQGTQVTVSS	high polyreactivity
QVQLVESGGGLVQAGGSLRLSCAASGIIFPPYAMGWYRQAPGKEREFVAGITSSGGTYYADSVKGRFTISRDNAKNTVFLQMNSLKPDDTAVYYCAARQGNLRRGFRWFNYWGQGTQVTVSS	high polyreactivity
QVQLVESGGGLVQAGGSLRLSCAASGRTFDLNAMGWYRQAPGKERELVAGISSSGGRTYYADSVKGRFTISRDNAKNTVYLQMNSLKPEDTAVYYCAKVYPSYVLRKYDYWGQGTQVTVSS	high polyreactivity
LVHLQESGGGLVLAGGGLRLSCAASGNIFTYVIMGWYRQPAGKERELVAAITYGTITNYADSVKGPFTISRDNAKNTVYLQMNCLKPEDTAVYHCAVQSTRIVPRHYYCGQGTQVTVSS	high polyreactivity
QVQLVESGGGLVQAGGSLRLSCAASGFTFNRYVMGWYRQAPGKERELVAAIDSGDSTYYADSVKGRFTISRDNAKNTVYLQMNSLKPEDTAVFYCAAEFKSKFFSDIFDNDYDYWGQGTQVSVSS	high polyreactivity
QVQLVESGGGLVQAGGSLRLSCAASGFILDTYGMGWYRQAPGKERELVAAISQSDVSTYYADSVKGRFTISRDNAKNTVYLQMNSLKPEDTAVYYCAADRGGLRWFWQVLYDYWGQGTQVTVSS	low polyreactivity
QFQLVESGGGLVQAGGSLRLSCAASGFIIEYNTMGWYRQAPGKERELVAAISFIGGRTYYADSVKGRFTISRDNAKNTVYLQMNSMKPEDNAVYYCKTRDGGYYCGARRVLYYYWGQGTQVTLSS	high polyreactivity
QFHHVESGGGLVQAGCSLRLSCGASGLTSAIYVMGLYRQAPGKEREFVADITWNAGSTYYADSVQGRFTISRDNAKNTVYVEMKSLKPEDTAVYYCNAYIVSGFYEYDFWGQGTQVTVSS	high polyreactivity
QVQLVESGGGLVQAAGSLRLSCAASGNIFVRYVMGWYRQAPGKERELVAAITTSGGSTRYADSVKGRFTISRDNAKNSVYLQMNSLKPEDTAVYYCAARFRYRHLTYGYWGQGTQVTVSS	high polyreactivity
HDQLVESGGGFVQAGGSLRLICAASGSTFIGYAMGWYRQAPGKERELVADISWSGGRTYYADSVKGRFTISRDNEKNTVYLQMNSLKPEDTAVYYCAARGSGHTRSYYWGQGTQVTVSS	high polyreactivity
QVHLVESVGGLVQAGGSLRLSCAASGRIIYTYAMGWYIQAPGKERELVAAISWSGGSTYYADSVKGRFTISRDNAKNTVYLQMNSLKPEDTAVYYCNAAYYGYENLSKRGYWGQGTQVTVSS	high polyreactivity
QVQLLESGGGLVQAGGSLRLSCAASGNTFTYYAMGWYRQAPGKERELVAAISDDGNTNYADSVMGRFTISRDNAKKTVYSQMNSLKPEDTAVYYCNADSYPSLNKRGYDYWGQGTQVTVSS	low polyreactivity
QVQLVESGGGLVQAGGSLRLSCAASGFTFPFYTMGWYRQAPGKERELVAAISRSGASTFYADSVKGRFTISRDNAKNTGYLQMNSLKPEDTAVYYCAGRRGYAPYEYWGQGTQVTVSS	high polyreactivity

Sequence	polyreactivity (PSR sort gate)
QVQLGESGGGLVQAGGSLRLSCAASGRIFSHNAMGWDRQAPGKERELVAVISRSGTGTYYADSVKGRFTISRDNAKNTVYLQMNSLKPEDTAVYYCNTYYEWWYYWGQGTQVTVSS	high polyreactivity
QVQLVESGGGLVQAGGSLRLSCAASGSIFDFYAMGWYRQAPGKERELVAAITWSGDTTYYADSVKGRFTISRDNAKNTVYLQMNCLKPEDTAVYYCAAEGWYWWYGRDYYWGQGTQVTVSS	high polyreactivity
QVQLVESGGGLVQAGGSLRLICAASGITFTQYAMGWYRQAPGNEREFVAGITISGSSTYYADSVKGRFTISRDNAKNTVYLQMNRLKPEDTAVYYCAAGVRRVYASGHGAYGYWGQGTQVTVSS	low polyreactivity
QVQHVESGGGLVQAGGSLRLSCAASGFIFPVNAMGWYRQAPGKERELVAAITYSTGSTYYADSVKGRFTISRDNAKNTVYLQMNSLKPEDTAVYSCAADVPPGEVVTNDYWGQGTQVTVSS	low polyreactivity
QVQLVESGGGLVQAGGSLRLSCAASGLIFSRYAMGWYRQAPGKEREFVAAINWNGGRTYYADSVKGRFTISRDNAKNTVYLQMNSLKPEDTAVYYCAATWIDYYVIYAYDYWGQGTQVTVSS	high polyreactivity
QVQLVESGGGLVQAGGSLRLSCAASGRTSVIYAMGWYRPAPGKERELVAGISYRGTSTYYADSVKGRFTISRDNAKNTVYLLMNSLKPEDTAVYYCAAESYYKYFNNYDYWGQGTQVTVAS	high polyreactivity
QVQLVESGGGLVQAGRSLRLSCAASGSTFGSNAMGWYRLAPGKERELVAAITRRGGSTYYADSEKGRFTISRDNAKNTVYLQMNSLKPEDTAVYYCAAQIHPRRDYSAFDYWGQGTQVTVSS	low polyreactivity
QVQLVESGGGLVQAGASLRLSCAASGRIFYLNVMGWYIQAPGKERELVAAISSSDDSTYYADSVKGRFTISRHYAKNTVYLQMNSLKPEDTAVYYCAAGYHQVQNYGDAYYWSELYSWGLGTQVTVSS	low polyreactivity
QVQLVESGGGLVQAGGSLRLSCAASGRIGRYAMGWYRQAPGKESELVAVITSGDSTYYADSVKGRFTITRDNAKNTVYFQMNSLKPEDTAVYYCAADSYRRWGILFTGNEYDSWGQGTQVTVSS	low polyreactivity
QVQLVESGGGLVQAGGSLRLICAASGSIFTKYTMGWSRQAPGKERELVAAITLRGTSTYYADSVKGRFTISRDNAMNTVYLQMNSLIPEDTAFYYCNKLYSWVVAYDYWGQGTQVTVSS	high polyreactivity
QVQLVESGGGLVQAGGSLRLSCAASGFTFAVYAMGWYRQAPGKERELVAAISRSGTRTYYADSVKGRFTISRDNAKNTVFLQMNSLKPEDTAVYYCAADKYRHGYDYWGQGTQVTVSS	low polyreactivity
QVQLVESGGGLVQAGGSLRLSCAASGSIFWYYAMGWYRQAPGKERELVAAISISGSTYYADSVKGRFTISRDNAKNTVYLQMNSLKPEDTAVYYCAARKFFWRSNYDYWGQGTQVNVSS	low polyreactivity
QVQLVESGAGLVQAGGSLRSSCAASGSTFSGNAMGLYRQAPGKERELVAAISGRGGSTYYADSVKGRFTISRDNAKNSVYLQMNSLKPEDTAVYYCAKRRNTRGAYGYWGQGTQVTVSS	high polyreactivity
QVQLVESGGGLVQAGGSLRLSCAASGFTFLFYAKGWYRHAPGKEMELVAAISWSGDTTYYADSVKGRFTISLDNSKNTVYLQMNSLKPEDTAVYYCNAESNIFGYDYWGQGTQVTVTS	high polyreactivity
QVQLVESGGGLVQAGGSLRLSCAASGFTLGFNAMGWYRQAPGKERELVATISSSGGSTHYADSVKGRFTISRDNAKNTVYLQMNSLKPEDTAVYYCARDDSDRIWLEQSGYWGQGTQVTVSS	low polyreactivity
QVQLVESGGGLVQAGGSLRLSCAASGRIFRGYAMGWYRQAPGKERELVADISSGASTNYADSVKGRFTISRDNAKNTVYLQMNSLKPEDTAVYYCAAQHSVLAYFEYDYWGQGTQVTVSS	low polyreactivity
QVQLVESGGGLVQAGGSLRLSCAASGRTFVQNAMGWYRQAPGKERELVASIRYRDGSTYYADSVKGRFTISRDNAKNTVYLQMNSLKPEDTAVYYCAAYLPGWELREYGYWGQGTQVTVSS	high polyreactivity
QVQLQESGDGLVQAGGSLRLSSGASGTIVSDYGMGGYRQAPGKERELLAGISDGCNTNYTDSVKGRFTISRDNAHRVSADEQPETGGYLGVLLRGTERWLHFYVYWGQGTQVTVSS	high polyreactivity
QVQLVESGGGLVQAGGSLRLSCAASGRTFYANAMGWYRQAPGKERELVATITRGGSTNYADSVKGRFTISRDNAKNTVYLQMNSLKPEDTAVYYCAARSYTSSHRHYYWGQGTQVTVSS	low polyreactivity
QVQLVESGGGLVQAGGSLRLSCAASGRTFNIYAMGWYRQAPGKERELVAAITWRSGSTYYADSVKGRFTISRDNAKNTVYLQMNSLTPEDTAVYYCAAEQWSCVPEFDYWGQGTQVTVSS	high polyreactivity
QVQLVESGGGLVQAGCSLRLSCAASGSIFPFNAMGWYRQAPGKERELVAAITRSGGSTYYADSVKGRFTISRDNAKNTVYLQMNSLKPEDTAVYYCATDPEWPLPAYYYWGQGTQVTVSS	low polyreactivity
